According to PMC7748003 (Plant Communications, 2019):
Each block holds one binder with its values, some of them ahead of it.

Columns and labels:
BES1-MBP = BES1-MBP (Arabidopsis thaliana, UniProt Q9LN63 1-335); test: EMSA
GST-SMXL6 = molecular target: T1, GST-SMXL6 (Arabidopsis, UniProt Q9LML2 1-979); test: pull-down
T1 sequence (looked up): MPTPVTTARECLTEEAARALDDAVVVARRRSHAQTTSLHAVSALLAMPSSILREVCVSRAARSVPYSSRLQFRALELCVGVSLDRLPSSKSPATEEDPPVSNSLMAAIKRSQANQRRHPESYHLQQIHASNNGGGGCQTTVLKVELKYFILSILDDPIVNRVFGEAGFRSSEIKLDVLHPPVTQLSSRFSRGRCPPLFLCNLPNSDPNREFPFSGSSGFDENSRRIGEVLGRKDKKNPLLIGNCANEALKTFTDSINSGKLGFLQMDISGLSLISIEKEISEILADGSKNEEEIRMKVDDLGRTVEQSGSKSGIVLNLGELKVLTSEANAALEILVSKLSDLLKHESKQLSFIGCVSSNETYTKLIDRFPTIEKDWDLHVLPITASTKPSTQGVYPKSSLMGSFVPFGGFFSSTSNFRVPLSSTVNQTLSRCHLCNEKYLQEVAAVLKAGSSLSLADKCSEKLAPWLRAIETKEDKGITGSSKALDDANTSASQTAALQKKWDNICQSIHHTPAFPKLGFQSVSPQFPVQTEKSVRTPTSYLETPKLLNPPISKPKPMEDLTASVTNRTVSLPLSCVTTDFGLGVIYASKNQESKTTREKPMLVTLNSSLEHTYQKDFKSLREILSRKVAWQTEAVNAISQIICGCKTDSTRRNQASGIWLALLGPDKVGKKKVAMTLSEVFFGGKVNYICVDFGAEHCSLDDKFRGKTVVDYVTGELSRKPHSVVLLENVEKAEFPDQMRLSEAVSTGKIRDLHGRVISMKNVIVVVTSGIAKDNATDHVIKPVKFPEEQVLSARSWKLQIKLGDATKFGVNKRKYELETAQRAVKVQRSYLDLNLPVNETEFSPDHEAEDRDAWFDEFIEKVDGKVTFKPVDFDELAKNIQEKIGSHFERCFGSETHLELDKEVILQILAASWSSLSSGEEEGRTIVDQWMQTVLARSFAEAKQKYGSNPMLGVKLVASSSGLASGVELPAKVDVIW

GST-SMXL7 = molecular target: T2, GST-SMXL7 (Arabidopsis, UniProt O80875 1-1002); test: pull-down
T2 sequence (looked up): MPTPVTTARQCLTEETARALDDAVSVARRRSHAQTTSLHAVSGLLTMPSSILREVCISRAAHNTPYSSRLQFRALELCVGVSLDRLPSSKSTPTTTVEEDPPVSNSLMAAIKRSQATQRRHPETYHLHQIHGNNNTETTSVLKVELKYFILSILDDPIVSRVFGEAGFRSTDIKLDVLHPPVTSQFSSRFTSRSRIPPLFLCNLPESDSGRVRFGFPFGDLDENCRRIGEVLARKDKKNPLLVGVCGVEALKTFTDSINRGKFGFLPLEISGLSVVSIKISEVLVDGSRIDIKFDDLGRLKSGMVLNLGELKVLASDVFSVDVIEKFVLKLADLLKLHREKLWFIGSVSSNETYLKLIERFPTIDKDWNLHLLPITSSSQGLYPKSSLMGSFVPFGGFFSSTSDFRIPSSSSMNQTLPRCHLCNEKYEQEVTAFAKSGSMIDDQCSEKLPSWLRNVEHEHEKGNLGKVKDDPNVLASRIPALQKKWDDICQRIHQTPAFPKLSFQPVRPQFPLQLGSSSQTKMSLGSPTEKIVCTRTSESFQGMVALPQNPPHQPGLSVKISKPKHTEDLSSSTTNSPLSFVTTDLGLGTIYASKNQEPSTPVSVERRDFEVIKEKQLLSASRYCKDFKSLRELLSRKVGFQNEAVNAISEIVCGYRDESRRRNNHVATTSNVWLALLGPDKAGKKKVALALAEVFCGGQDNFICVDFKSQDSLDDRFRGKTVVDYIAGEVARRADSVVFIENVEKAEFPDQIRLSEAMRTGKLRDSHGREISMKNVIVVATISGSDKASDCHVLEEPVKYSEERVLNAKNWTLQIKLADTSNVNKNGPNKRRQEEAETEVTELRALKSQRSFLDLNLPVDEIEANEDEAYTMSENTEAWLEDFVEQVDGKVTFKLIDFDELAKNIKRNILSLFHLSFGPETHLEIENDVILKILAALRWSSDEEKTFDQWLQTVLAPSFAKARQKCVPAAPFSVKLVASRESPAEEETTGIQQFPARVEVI

GST-SMXL8 = molecular target: T3, GST-SMXL8 (Arabidopsis, UniProt F4IGZ2 1-910); test: pull-down
T3 sequence (looked up): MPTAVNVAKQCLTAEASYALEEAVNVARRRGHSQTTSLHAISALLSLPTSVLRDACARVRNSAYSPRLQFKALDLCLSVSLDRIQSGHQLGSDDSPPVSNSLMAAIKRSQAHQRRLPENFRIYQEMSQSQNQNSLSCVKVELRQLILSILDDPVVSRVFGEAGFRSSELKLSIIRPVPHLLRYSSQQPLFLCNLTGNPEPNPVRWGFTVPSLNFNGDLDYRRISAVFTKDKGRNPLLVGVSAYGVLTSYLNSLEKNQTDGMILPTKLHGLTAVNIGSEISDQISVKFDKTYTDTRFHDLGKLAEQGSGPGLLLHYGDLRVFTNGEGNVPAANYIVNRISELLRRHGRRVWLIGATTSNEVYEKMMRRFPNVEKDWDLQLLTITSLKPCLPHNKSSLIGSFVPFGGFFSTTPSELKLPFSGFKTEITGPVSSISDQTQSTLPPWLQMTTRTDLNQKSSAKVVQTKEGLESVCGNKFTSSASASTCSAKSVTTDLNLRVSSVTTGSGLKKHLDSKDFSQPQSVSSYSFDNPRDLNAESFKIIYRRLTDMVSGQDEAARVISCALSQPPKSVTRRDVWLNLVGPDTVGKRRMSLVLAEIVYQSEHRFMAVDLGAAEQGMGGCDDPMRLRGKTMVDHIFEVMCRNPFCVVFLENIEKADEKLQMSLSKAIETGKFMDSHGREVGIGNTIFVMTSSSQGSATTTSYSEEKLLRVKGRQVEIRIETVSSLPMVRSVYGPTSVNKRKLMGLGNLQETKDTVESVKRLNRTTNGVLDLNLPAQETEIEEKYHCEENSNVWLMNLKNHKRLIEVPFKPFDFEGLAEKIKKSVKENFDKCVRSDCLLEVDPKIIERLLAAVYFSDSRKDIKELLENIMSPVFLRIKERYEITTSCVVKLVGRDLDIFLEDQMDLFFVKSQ

B1: BRC1 promoter probe a (fragment F2) (dsDNA)
DNA 1: GAACAAATGCAATATATCAATAGTTAGTGTACATATGAAG
DNA 2: CTTCATATGTACACTAACTATTGATATATTGCATTTGTTC
binding result (BES1-MBP): binds

B2: BRC1 promoter probe b (fragment F4) (dsDNA)
DNA 1: AACATAAACAAACACAAGGTCCTAATTATAGAAAAAAATC
DNA 2: GATTTTTTTCTATAATTAGGACCTTGTGTTTGTTTATGTT
binding result (BES1-MBP): binds

B3: BRC1 promoter probe c (fragment F5) (dsDNA)
DNA 1: AAGAAGATTATAGTACAAGTGTCATTCTCAAAATTTTGTC
DNA 2: GACAAAATTTTGAGAATGACACTTGTACTATAATCTTCTT
binding result (BES1-MBP): binds

binding result (GST-SMXL6): binds | binding result (GST-SMXL7): binds | binding result (GST-SMXL8): binds
B4: MBP-BES1 (natural protein, Arabidopsis, UniProt Q9LN63 1-335, looked up)
chain: MTSDGATSTSAAAAAAAMATRRKPSWRERENNRRRERRRRAVAAKIYTGLRAQGNYNLPKHCDNNEVLKALCSEAGWVVEEDGTTYRKGHKPLPGDMAGSSSRATPYSSHNQSPLSSTFDSPILSYQVSPSSSSFPSPSRVGDPHNISTIFPFLRNGGIPSSLPPLRISNSAPVTPPVSSPTSRNPKPLPTWESFTKQSMSMAAKQSMTSLNYPFYAVSAPASPTHHRQFHAPATIPECDESDSSTVDSGHWISFQKFAQQQPFSASMVPTSPTFNLVKPAPQQLSPNTAAIQEIGQSSEFKFENSQVKPWEGERIHDVAMEDLELTLGNGKAHS
